Experimental data taken from PMC4362353.

Target: recombinant adeno-associated virus-6 vector particle (rAAV6 capsid) (adeno-associated virus 6)
Assay: co-sedimentation

B1: secreted human Galectin 3-binding protein from HEK293 culture medium (natural protein)
chain: VNDGDMRLADGGATNQGRVEIFYRGQWGTVCDNLWDLTDASVVCRALGFENATQALGRAAFGQGSGPIMLDEVQCTGTEASLADCKSLGWLKSNCRHERDAGVVCTNETRSTHTLDLSRELSEALGQIFDSQRGCDLSISVNVQGEDALGFCGHTVILTANLEAQALWKEPGSNVTMSVDAECVPMVRDLLRYFYSRRIDITLSSVKCFHKLASAYGARQLQGYCASLFAILLPQDPSFQMPLDLYAYAVATGDALLEKLCLQFLAWNFEALTQAEAWPSVPTDLLQLLLPRSDLAVPSELALLKAVDTWSWGERASHEEVEGLVEKIRFPMMLPEELFELQFNLSLYWSHEALFQKKTLQALEFHTVPFQLLARYKGLNLTEDTYKPRIYTSPTWSAFVTDSSWSARKSQLVYQSRRGPLVKYSSDYFQAPSDYRYYPYQSFQTPQHPSFLFQDKRVSWSLVYLPTIQSCWNYGFSCSSDELPVLGLTKSGGSDRTIAYENKALMLCEGLFVADVTDFEGWKAAIPSALDTNSSKSTSSFPCPAGHFNGFRTVIRPFYLTNSSGVD
- percent of rAAV6 in the pellet fraction (2,000 g, 10 minutes): 70%
- percent of rAAV6 in the precipitate (10,000 g, 30 minutes): 90%
